Experimental data as given in the NTF2 design screens of Basanta et al. (2020).

Test: protease stability score; higher = more stable; yeast display proteolysis, trypsin and chymotrypsin;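 also: relative to predicted unfolded state with 0 unfolded-like and 1 meaning tenfold more protease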

REQEELMREYYEIHTHVLKTGNEDALEKLLDPNVRIHIDGKELHGMEAWEILNKRFDHIRHSHIHDFRIIGDKLHIDGRQKGVVDGVEREVHVHIVIEKIDGRWKLKSFYFR
protease stability score: 1.2

REQEHEAKVAVDEWREDMETGDEHRLRELMDPDVRNIVGDKELHGREAVEFLITQIDHVKHIHVRHLDIQGDYIRFEGEINIHVNGRDRTLDVELYFIKINGRWHIHKLRFD
protease stability score: 1.66

RESDEEREEFYKLLMHAYETGDERILNELMDPNVQIHQGEWHLHGRKDLRRRFKHLRIDHVDHITRDMRVVGDKIEVHGHIIVEGTVDGVRDTKSFDVHILTEKIDGQWFIKSVHIR
protease stability score: 0.903

RETEEEIRHAHELLLEAEQTGDEHILHHMLDPNVRFQVGDKHIHGRENFMKQFRKLWEDFGVDHIEIRLKEMRVFENRVHVRGELIIRVGDKEMRTKHIEVSEKIDGKWLLHSVKFE
protease stability score: 1.14

REWKEEMLRFLTRWNKAYKTGNEQELNKLADPNVRVDINGKQLHGRELATLIVSELRIEETHVKMDTFRIVGEKAEIDSRLEIHGVYDGVKMDTHHEVVIILRKVDGQWHLTTMEER
protease stability score: 0.382

RHEEEVLEHWMRLYIEALLTGDEHTLHRLLDPNAKVHIDGRDVVGREEIVRWLREFWNEIRIKHLTISDLKIYGEYVHITGTLNVQVNGQTEHRRIEIDLVIIDGVFKESEVRIH
protease stability score: 2.39

RHEERHLEEKLQRLLHAWLTGDEDELTELADPDVRLKINGQHYIGWEQFFKALTDLRREMRIHDLKIKRKEIDGDKLVLDGETDGEINGVKRLHKTEIIIIMIDGRLRRVEFRQH
protease stability score: 0.618

RKEEDEARKFLHTYIELMRTGDEDNLKEFVDPHVRLEVGDKRVVGWDRYVENVVELIEKVPNLRIHIDSVRAIGNWLHVDGTLIQGDKHREIHLHLQKIDGRWILTHQHVR
protease stability score: 1.34

RKEEEDLHKLLEHLSENYWTGNEEMFNHLADPHTRFEIRIGEFTIEDHGRERIKELVEWLLRFLGANHSHLTSIRVVGDKFHVNSLIHVDGREHTLHIIFVFINGRLTHYSMEVR
protease stability score: 1.35

RQEEHDMEYAREIVERVLDTGDEHLMEEYFDPNAKLRIGDKEDHGREVFAHWVREIRVRHVQLTDHRLVGDKLEFDIELDININGREHRTKVHLIIRKVNGKWFIQHVEIR
protease stability score: 1.19

RSEEHEAKDKVREWVEAYLTGDEDHLRRLHDPDMRFNWNGVEIHGMEEFSHWMHKYMYELGVDHTHVTVRHIEFYGDKIHADTKLFIRQGDKEREHHSQVHIEVINGQFKRLEIREH
protease stability score: 0.829

SAEEHAQRVILELLIEAYETGDEDMLRRLFDPNVRIEIGDKDFVGREDFDHLLERVKNVVFHEIRLRDVKVYNGKVEDNGEINIRYGDKSRTHQVKIVMIKVDGRWMLHDFEIK
protease stability score: 1.96

SDAERHSQEVLRLWIKAAKTGDEDKFRNYIDPHVRVEINGKEIHGRDILLEEMRRRDVIRHVRVTDSRHYDGVVIMDVEVDGHVNGRDVETQTTSFIIKIDGKWVWQSFVQI
protease stability score: 0.98

SDDEEDVWRMAEIILKLFYTGDEEKFRNLADPNVRLNFNGRNFIGRENLEKHLRELRIHRIELREMDLKVINGRAEVRVRGFVDGEIDGQRYHSEVRLIMIITKVDGRWIIESIEFEQL
protease stability score: 2.59

SDDEEEVLRLMDHILHALWTGDWKHLEENMDPNVRSHINGQDVHGMERVVEFILRELKELRFEHLHIEHVEIIGNKATLHYRVDGHINGRRINRRVHLEVTMVNGRVKQVIFFNE
protease stability score: 2.08

SDDEHAAHLIIFIWTFALITGDEQTLKELLDPNVKNEFNGVELHGREQVEEHVRRYDWVTDFKFRVDDIQHQGEKIILDGTLVITMEFDGRREDIKSRFILIVRKVDGKWHLERLIIV
protease stability score: 1.86

SDDEQNVRDTFTEFVESMETGDEDHMLEMVDPHVRIEFENHSHIGRDNVHRWILFFKNATLRWKLERMHVYDGRVEIHSRMEVEVNGREIEFNIILHVRKVDGKWVIHEIRIH
protease stability score: 1.14

SDDEREDRIAIDILLRSTETGDEDTVRHMFDPNARVDVDGREIHGRDASKLFMERVDHIHEVKIDDIKTINGRVHNEGTWYGEYGDKKSELKVHWVLLKIDGRWLIKEVRIR
protease stability score: 1.57

SDDERLAHHLVELLLHNIETGDFRMLMHLIDPNVRIDINGVEIHGREEWHKHLRTLGFDHFELHIDSIDAFDGKVIVHTTIRIKYNGVHFEKKTHLIAEKFDGRWYMREIRER
protease stability score: 1.55

SDDERMLHLLIKILIRAIQTGDEDTLLRQVDPHVRIDIDGRDIVGREDLIEFAKHWRFELREVNIRHMEIYGEYIHAEVEVRGKIIIGDKEVETTVDTRHIILKINGRWFFHSISVK
protease stability score: 1.26

SDDHEEAKEALRLWVEDLLTGDEDRLRELVDPNARIEIIVNGRTIEYHGRDRVNKWTSFVLLRLGVKHSHVHEIRLIDGRVHNDLRIHQGDKDQILHLSFEKINGKWTLREVKISVV
protease stability score: 1.39

SDDHHKAKLFNEWFKQHFDTGDEHLYKRLADPNVRIHINGVDIVGRELATHLLSHIRITHFEVHDHKVQGNKVHTDGRVHGDVNGVEERVYVELVIEKIDGRWLNHQEIWV
protease stability score: 0.332

SDEDEDARRVMELLLELFETGNWRELSKLADPHVRMEIDGQDFHGRELFEHFVRELIEKFKGAKLELRVHTLDLINGVMYSDIHIHLNVNGRKLDIRSHFRILKIDGRWLTRSFHFK
protease stability score: 1.25

SDEDEEMRELMERIHHAIKTGDEDLLHHMFDPNARVDIDGQIWHGREWEHFFLRKFKGLRIEIKRVHVQGDKIHFRGLDEINGVKFDSHLIIIIVNGKTHAIEIDHR
protease stability score: 1.53

SDEDEISKHWVELLVEHIKTGDEDFLFKMFDPNVRVIIGDKIMHGRETLLDLIEKELKEAGITRFSMNLHHVDTQGDKAHSNMILDVNGVYRNVRVHFEKIDGKWHMHTWEER
protease stability score: 1.99

SDEDHEAHRMMRLFFEAQRTGDEHLVRKLVDPDVRTFYGEKHMHGRRHHVEILLEIRIHRLTITELRVYGEKVRMDIRVDEQIGDKRREVRFELHLVVIDGVLKVVSIDME
protease stability score: 0.92

SDEDHSSHLAHRWLLEILETGDEERLLRLADPNYRLDVDGRRFIGREDLLRWMKHVVERADHIELRDHHVDNQGDKVSSDVIVNERFDGKTERYRTHIVINKFDGKWVFHRFKIK
protease stability score: 0.928

SDEDKELEHVMKKFEDALSTGDENTLYSLLDPNVKLEIGDKEIHGMEEFVRVMKRHLHELGAKFRSITIEHWNIIGEKVRLHSKIILDFNGRDIFLNTHIVMFKFDGRWIFETFKIQ
protease stability score: 2.23

SDEDRLNYEIAKYLLDSLRTGDWHTFRRMADPHVKIRTVINGQELRMHGMEDLMERWKLLGFDHTRVHVEHIEIQGDKAHVRGTVKININGQEHTYETDLDVQIVNGRVESINFNWL
protease stability score: 1.14

SDEEDHWHELLERIVRLLMTGDEKTLNKLFDPNMRIIIIIGDKEIRLHGRHKFEKWVRDFLNKFKNVKIEIDDHRAVNGVVQIDGTLFIDGREHHVENNFFIVNGRITEIQIHIK
protease stability score: 1.28

SDEEDTLESVYKLLEHIERTGDWRIWKELADPNVRVELHVNGVEITDHGREAVERLMLKFGVDHIHFKDFDHRTYNGVVHIQEDIVLNINGREIRTKREISADKVNGKWVFRSVRMKID
protease stability score: 1.69

SDEEEDIERAIRLMHEIHETGDESVWEHLADPHVKVDFNGQERHGREDMIKIWHYLGVKHVFFRDIRVQGEFLVVHSEDNVDGKTFQIRYLVFKINGRWFLEEVEFD
protease stability score: 0.942

SDEEEEERRIAHELRHFWETGDEDAFRDMLDPHTRLQIDINGRHFHLHGREHIVRHLSEVWNKFGVKHLKFHDHHVVNGVTHMDGEENIGDKRRRVRIIIIVVNGRVRMVRIQIE
protease stability score: 1.45

SDEEEEVREYYEKWFHDVYTGDEDSFRDMLDPHVKVEINGKELHGRENAEKFEKRMGVDHLNIRRFHFWDGRLEIRGESEYGDKRFKTEIHAIKINGRWVVKLIRFE
protease stability score: 0.761

SDEEEILRRLMQEYYEIFFTGNEEFLHRLADPHVRFLVNGQWYHGREQFTRMFVELLEKLGAKHIELDRHTVRIIDGRIEIIIHTTIKVDGKEHTMHIIVNVEKINGRWILRSMEMEVR
protease stability score: 1.34

SDEEELYEILLEIELKSAMTGDWRNLKDLLDPDTRIHFNGVEIHGREHAEKHLKRYDVDKIEDVRYRDMRFQGDKARVHGEVRILLQFDGRRMEIDTTIQVINYKVNGVWIIESLHFE
protease stability score: 1.24

SDEEENLKEWVRLMYESARTGDEDSTSHLIDPNVRIHVNGRELHGRELVLEHLRRIDHVELRIHIREVETYDGRLKVEGELREIMIFNGKRVDLRIDTVFINLKVNGRWVLKEVHII
protease stability score: 1.34

SDEEERIRRVAEHILHLILTGDEDRWEDMMDPNVRVHIDWNGVKIHLHGREKAAEFFKRFKNIRIEIHSVRIIGEKNDSDERLHVNGQTRDLHNHIIVVNGRIEHMEIRVR
protease stability score: 2.66

SDEEERLERVSELLLHAIETGDWRILAELADPHVRLEIGDKEIHGREIVVDLIRKEYDKYKNMRITNEDFDVQGNKTEWHVNIHIGDKEVRIHIYNVVINGKIRRRHIHIR
protease stability score: 1.23

SDEEERLRDFVRRYMESMRTGDEDTWRTMLDPNVQVTINGRWEIGRESAYEFLWTVFTHLGVDHLELDHFHLYGEKIELDLTAFVNGQTKKVRVELIVIDGKLKSEKIHDK
protease stability score: 1.12

SDEEERTRTAIEQLIELRLTGDEEMLHKLVDPHYRLHFIVDGRDLDFIGWRDFQRIFHEETKKFKNMRIEWRHVDIVNGVVTVHIELKIGDKRDEIDLFFFKINGRWILKSVEVHRR
protease stability score: 1.47

SDEEESFFTMLELFVEYLHTGDEHEFKKLADPHVRSLYDGVELHGREWFIRKFREMRVKSLHFHHSDIHIINGRARARIDVRLDGEVNGVEDLTETEIRLEVHKVDGQWVFHSVEIHRK
protease stability score: 1.33

SDEEEYTRKAIERWIKDFITGNEDLIRKFADPNTRMEWNGKEHHGMELMVKVLKREIHEIRLQKFDVHHVEIYNGRAIVHLKLHGTIDGREETLDVIIFSEKINGQWRVEQLSIR
protease stability score: 1.39

SDEEHELREATEILLHLFLTGDEESLDNLADPNVRVDYNGVKYHGREVLSFWLHEELKHARIHIRIRSLHLVGEFLHIQGEVRIEQGEFRRRHDMHWIIEKVDGRWIIRYVLIK
protease stability score: 1.56

SDEEHIVQVALKNYIKAVMTGDEHLFNELMDPNTRNDINGVIYHGMEEWVKSVEELGIERFTIHEVYEHDFRVYNGQVDIHVRVDREVNGRRINDEVEIVAYKVNGRWQLRSLIFR
protease stability score: 1.39

SDEEHLAERASKEWRHSVRTGDEHQLHEMIDPHVKLIVGDKEFHGREHFLEHLKHLRIKNVDIKRIRIIGDKVEIDSELHGHVNGVEIRTREHIHIEKIDGRWVITEVIWV
protease stability score: 0.955

SDEEHQWELAFRFWITILKTGDEDHFERLADPHYLLQIGDKHVVGREQIAREIEKYRRELGVDHSHFDVDHIQVVGDKVEIQGSLEIRVGDKSIHHTTRTIIRKVDGRWLLKKVHFG
protease stability score: 1.23

SDEEHRREKLNRIMLEWWMTGDWKHIEHLADPNVRLEMNIGNKHLDHHGREELSRLIIELLKELGFKHSHLEHVEIQGDKFISIVRLHVNGVHFIVHIESVIINGKLTELRIEIRKV
protease stability score: 1.21

SDEEHSLKRMWKELAHAMMTGDEHTVTELLDPHVRFEYGEFDLHGREDWLEFLREIRILIHHFEVRHINNFENHINTDGFTDIIIIIGDKDIRRRRKTQYFQVKVNGQWLFRSIHVR
protease stability score: 1.41

SDEEHVSRIALEIDIWLKETGDEHLLRHYLDPDTRSHFNGRSVHGMDILIKILHHWRIHDLEVKRMHLVGDFVELDIRVDGTFNGRRINMEQIIHVEKIDGQWHLKEVRIH
protease stability score: 1.54
